From article PMC11236199, “Variation in structural motifs within SARS-related coronavirus spike proteins” (PLOS Pathogens, 2024)

Molecular target: the molecule itself
Assay: cryo-EM structure

B1: Bat SARS-like coronavirus WIV1 spike protein ectodomain (domain or fragment)
chain: not shown
notes: also called bCoV-WIV1; bat SL-CoV WIV1
  stoichiometry N: 3
